Measurements taken from PMC6681757, “Site-specific phosphorylation of myosin binding protein-C coordinates thin and thick filament activation in cardiac muscle” (Proceedings of the National Academy of Sciences of the …, 2019).

Molecular target: T1, myosin S2Δ, the first 126 amino acids of myosin S2 (cardiac myosin)
T1 construct: cardiac myosin heavy chain, S2 domain, first 126 amino acids of S2
Assay: MST; C1mC2 species (or native full-length cMyBP-C) titrated against myosin S2Δ; normalized MST curves; conditions in SI Appendix
Details: both partners purified

- Kd: ~20 µM
B1: C1mC2-S288A monophosphorylated by PKA (C1mC2-S288A-1P) (domain or fragment)
chain: PIGLFLMRPQDGEVTVGGSIVFSARVAGASLLKPPVVKWFKGKWVDLSSKVGQHLQLHDSYDRASKVYLFELHITDAQATSAGGYRCEVSTKDKFDSCNFNLTVHEAIGSGDLDLRSAFRRTSLAGTGRRTADSHEDAGTLDFSSLLKKSSSFRRDSKLEAPAEEDVWEILRQAPPSEYERIAFQHGVTDLRGMLKRLKGMKHDEKKSTAFQKKLEPAYQVNKGHKIRLTVELADPDAEVKWLKNGQEIQMSGRYIFESIGAKRTLTISQCSLADDAAYQCVVGGEKCSTELFVKEP
modifications: one phosphate (monophosphorylated by PKA); the phosphorylated residue is not given
